From patent US20230211007A1 (published 2023)

T1: CD20 (UniProt P11836 142-188, limits assumed)
T1 construct: Bought reagent
T1 chain (looked up): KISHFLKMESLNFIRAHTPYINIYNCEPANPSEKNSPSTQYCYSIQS


Target: T1, CD20
Test: BLI (Octet), antibody on Pro A probe, CD20 25-200 nM in solution
Method: Antibody samples were dissolved in PBS with a working concentration of 10 μg/mL; CD20 (Beijing SinoBiological Co., Ltd.) was dissolved in PBS and gradiently diluted to concentrations of 25 nM, 50 nM, 75 nM, 100 nM, 150 nM, 200 nM respectively. The working volume was 200 μL.
The data diagram was fitted by OCTET system and data-processing software, and the intermolecular interaction between the antibody and the CD20 was calculated by the software, and shown in KD value.

Kd	Binder
5.35 nM	WT Rituximab (antibody, human IgG1, kappa, also called anti-CD20 wild-type antibody) heavy: not shown light: QIVLSQSPAILSASPGEKVTMTCRASSSVSYIHWFQQKPGSSPKPWIYATSNLASGVPVRFSGSGSGTSYSLTISRVEAEDAATYYCQQWTSNPPTFGGGTKLEIKRTVAAPSVFIFPPSDEQLKSGTASVVCLLNNFYPREAKVQWKVDNALQSGNSQESVTEQDSKDSTYSLSSTLTLSKADYEKHKVYACEVTHQGLSSPVTKSFNRGEC
8.97 nM	anti-CD20 antibody mutant 124C (antibody, human IgG1, kappa) heavy: not shown light: QIVLSQSPAILSASPGEKVTMTCRASSSVSYIHWFQQKPGSSPKPWIYATSNLASGVPVRFSGSGSGTSYSLTISRVEAEDAATYYCQQWTSNPPTFGGGTKLEIKRTVAAPSVFIFPPSDECLKSGTASVVCLLNNFYPREAKVQWKVDNALQSGNSQESVTEQDSKDSTYSLSSTLTLSKADYEKHKVYACEVTHQGLSSPVTKSFNRGEC
4.86 nM	anti-CD20 antibody mutant 166C (antibody, human IgG1, kappa) heavy: not shown light: QIVLSQSPAILSASPGEKVTMTCRASSSVSYIHWFQQKPGSSPKPWIYATSNLASGVPVRFSGSGSGTSYSLTISRVEAEDAATYYCQQWTSNPPTFGGGTKLEIKRTVAAPSVFIFPPSDEQLKSGTASVVCLLNNFYPREAKVQWKVDNALQSGNSQESVTECDSKDSTYSLSSTLTLSKADYEKHKVYACEVTHQGLSSPVTKSFNRGEC
